Legend:
c-Src SH2 = assay: SH2 binding enrichment of the phosphorylated peptide, bacterial display (enrichment ratio); higher = better substrate or ligand; peptides without Tyr show the background
Grb2 SH2 = Grb2 SH2 (UniProt P62993); assay: as above
SHP2-C SH2 = assay: as above
Fyn = Fyn (UniProt P06241); assay: phosphorylation enrichment, bacterial display (enrichment ratio); higher = better substrate or ligand; peptides without Tyr show the background
EPHB1 = EPHB1 (UniProt P54762); assay: as above
FGFR1 = FGFR1 (UniProt P11362); assay: as above
Jak2 = Jak2 (UniProt O60674); assay: as above
Sequence of Jak2 (O60674 whole entry, looked up): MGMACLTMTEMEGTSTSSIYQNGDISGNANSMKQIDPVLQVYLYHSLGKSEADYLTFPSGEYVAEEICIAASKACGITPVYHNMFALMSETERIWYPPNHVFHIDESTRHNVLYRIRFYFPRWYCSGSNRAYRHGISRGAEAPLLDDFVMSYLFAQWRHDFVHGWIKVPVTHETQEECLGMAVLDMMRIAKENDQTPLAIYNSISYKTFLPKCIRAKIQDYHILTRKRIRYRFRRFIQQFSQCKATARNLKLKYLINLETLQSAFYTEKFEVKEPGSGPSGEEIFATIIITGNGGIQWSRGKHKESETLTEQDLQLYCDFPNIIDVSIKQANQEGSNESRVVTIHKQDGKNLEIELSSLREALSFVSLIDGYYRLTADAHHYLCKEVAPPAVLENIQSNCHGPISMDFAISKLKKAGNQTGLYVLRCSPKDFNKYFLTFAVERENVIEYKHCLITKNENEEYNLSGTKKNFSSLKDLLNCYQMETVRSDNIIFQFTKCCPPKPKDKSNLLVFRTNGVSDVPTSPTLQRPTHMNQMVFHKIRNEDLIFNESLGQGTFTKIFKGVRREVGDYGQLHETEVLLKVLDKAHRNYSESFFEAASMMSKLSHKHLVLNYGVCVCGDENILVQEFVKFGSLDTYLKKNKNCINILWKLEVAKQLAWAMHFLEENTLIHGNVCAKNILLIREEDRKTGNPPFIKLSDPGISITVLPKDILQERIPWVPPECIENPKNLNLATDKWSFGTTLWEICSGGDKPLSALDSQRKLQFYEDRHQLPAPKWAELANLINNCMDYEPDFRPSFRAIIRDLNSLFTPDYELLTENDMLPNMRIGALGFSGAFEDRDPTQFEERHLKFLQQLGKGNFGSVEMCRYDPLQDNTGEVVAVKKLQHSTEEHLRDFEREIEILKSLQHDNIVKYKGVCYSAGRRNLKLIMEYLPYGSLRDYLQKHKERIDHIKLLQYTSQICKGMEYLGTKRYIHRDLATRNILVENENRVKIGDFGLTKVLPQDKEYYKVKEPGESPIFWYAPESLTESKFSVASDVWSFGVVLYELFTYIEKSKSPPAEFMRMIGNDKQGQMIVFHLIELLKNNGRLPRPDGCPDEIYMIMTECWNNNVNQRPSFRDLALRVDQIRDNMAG

c-Abl (mouse) = assay: as above
Hck = Hck (UniProt P08631); assay: as above
Sequence of Hck (P08631 whole entry, looked up): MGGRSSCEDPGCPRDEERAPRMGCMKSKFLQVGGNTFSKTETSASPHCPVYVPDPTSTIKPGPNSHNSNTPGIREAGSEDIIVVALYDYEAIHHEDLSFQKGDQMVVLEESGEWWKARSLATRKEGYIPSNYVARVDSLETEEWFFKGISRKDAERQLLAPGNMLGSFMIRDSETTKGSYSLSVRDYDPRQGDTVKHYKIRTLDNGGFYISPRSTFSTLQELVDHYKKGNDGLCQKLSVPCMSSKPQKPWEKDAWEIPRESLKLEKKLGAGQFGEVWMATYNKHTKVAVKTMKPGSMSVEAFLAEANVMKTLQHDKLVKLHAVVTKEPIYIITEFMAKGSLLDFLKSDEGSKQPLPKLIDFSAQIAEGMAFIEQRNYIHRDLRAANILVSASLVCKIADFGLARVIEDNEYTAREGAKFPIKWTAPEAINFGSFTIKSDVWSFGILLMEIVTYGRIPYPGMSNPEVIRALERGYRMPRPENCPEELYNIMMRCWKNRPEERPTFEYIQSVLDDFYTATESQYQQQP

EPHB2 = EPHB2 (UniProt P29323); assay: as above
Fer (mouse) = assay: as above
c-Src = assay: as above
AncSZ = assay: as above
FGFR3 = FGFR3 (UniProt P22607); assay: as above
Sequence of FGFR3 (P22607 whole entry, looked up): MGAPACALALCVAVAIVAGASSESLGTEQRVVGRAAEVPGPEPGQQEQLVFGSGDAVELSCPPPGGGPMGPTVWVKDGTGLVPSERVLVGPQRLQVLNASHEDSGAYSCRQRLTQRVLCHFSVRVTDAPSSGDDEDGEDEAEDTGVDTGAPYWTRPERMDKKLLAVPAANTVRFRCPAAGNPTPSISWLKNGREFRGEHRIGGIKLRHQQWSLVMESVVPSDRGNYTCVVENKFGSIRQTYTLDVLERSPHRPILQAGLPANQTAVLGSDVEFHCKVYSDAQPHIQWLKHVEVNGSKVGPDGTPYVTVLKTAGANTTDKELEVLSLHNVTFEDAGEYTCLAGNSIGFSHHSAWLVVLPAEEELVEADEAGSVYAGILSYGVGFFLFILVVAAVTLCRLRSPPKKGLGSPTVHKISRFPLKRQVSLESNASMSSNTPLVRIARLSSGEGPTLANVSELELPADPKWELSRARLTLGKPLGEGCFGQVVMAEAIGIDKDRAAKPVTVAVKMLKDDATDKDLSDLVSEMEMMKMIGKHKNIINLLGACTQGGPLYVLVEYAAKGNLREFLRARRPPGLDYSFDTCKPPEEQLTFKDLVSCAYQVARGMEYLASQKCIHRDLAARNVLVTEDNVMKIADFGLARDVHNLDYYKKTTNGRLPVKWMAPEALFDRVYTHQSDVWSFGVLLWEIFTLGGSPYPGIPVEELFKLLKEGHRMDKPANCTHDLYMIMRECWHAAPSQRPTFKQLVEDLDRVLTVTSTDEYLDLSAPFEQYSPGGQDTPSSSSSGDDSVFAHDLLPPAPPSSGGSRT

Fes = Fes (UniProt P07332); assay: as above
Sequence of Fes (P07332 whole entry, looked up): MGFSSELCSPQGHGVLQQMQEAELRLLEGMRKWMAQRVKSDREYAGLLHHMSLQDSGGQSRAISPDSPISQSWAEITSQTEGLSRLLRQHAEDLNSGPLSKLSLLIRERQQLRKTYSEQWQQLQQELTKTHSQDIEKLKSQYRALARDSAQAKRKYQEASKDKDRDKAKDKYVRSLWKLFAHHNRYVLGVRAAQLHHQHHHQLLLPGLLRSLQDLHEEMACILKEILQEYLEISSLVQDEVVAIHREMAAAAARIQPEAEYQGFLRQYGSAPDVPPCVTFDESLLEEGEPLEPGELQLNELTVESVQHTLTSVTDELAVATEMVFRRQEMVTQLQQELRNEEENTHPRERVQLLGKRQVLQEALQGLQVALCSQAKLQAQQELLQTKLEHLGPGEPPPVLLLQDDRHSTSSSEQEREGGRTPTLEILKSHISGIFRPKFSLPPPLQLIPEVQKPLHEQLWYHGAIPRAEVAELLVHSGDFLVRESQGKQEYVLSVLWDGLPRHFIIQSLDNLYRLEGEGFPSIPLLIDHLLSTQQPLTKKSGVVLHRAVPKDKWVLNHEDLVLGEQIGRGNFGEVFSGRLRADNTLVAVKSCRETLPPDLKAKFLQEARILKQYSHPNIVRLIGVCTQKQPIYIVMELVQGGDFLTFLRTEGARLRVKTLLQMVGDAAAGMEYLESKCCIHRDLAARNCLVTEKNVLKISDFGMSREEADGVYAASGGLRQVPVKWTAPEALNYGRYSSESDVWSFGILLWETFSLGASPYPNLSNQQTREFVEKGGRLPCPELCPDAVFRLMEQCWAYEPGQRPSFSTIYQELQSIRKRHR

MERTK = MERTK (UniProt Q12866); assay: as above
Sequence of MERTK (Q12866 whole entry, looked up, the tested form may be a part): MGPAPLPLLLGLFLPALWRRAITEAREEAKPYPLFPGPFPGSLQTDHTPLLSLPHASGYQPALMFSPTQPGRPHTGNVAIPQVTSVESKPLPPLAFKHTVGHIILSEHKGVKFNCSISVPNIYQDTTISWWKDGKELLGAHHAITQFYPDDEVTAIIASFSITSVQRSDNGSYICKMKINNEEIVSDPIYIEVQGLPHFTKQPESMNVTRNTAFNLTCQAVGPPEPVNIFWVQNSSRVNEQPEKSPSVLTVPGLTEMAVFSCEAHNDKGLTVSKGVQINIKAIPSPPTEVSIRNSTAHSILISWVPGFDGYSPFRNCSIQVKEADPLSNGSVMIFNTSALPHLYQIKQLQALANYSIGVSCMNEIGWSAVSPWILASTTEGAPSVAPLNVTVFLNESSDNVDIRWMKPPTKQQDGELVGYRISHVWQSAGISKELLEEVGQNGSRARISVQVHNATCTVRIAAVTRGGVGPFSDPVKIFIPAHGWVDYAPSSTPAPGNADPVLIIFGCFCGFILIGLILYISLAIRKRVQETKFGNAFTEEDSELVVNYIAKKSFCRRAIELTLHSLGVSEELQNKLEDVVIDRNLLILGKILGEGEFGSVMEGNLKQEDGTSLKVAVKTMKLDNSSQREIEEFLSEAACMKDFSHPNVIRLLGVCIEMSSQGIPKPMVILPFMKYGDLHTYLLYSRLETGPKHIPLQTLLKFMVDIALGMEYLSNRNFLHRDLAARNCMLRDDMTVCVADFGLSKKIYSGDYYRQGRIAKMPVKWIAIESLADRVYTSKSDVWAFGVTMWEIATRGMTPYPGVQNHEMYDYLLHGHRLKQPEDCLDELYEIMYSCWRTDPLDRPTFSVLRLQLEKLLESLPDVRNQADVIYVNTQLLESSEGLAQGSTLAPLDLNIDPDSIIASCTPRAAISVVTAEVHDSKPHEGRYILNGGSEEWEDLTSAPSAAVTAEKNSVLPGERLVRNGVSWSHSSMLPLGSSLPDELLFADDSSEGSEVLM
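Throughout, for SH2 binding enrichment of the phosphorylated peptide, bacterial display: peptide library displayed on the E. coli surface as eCPX fusions, selected cells deep-sequenced, score is each peptide's frequency after selection divided by its frequency in the input.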
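Throughout, for phosphorylation enrichment, bacterial display: 11-residue human phosphosite peptides and single-mutation variants displayed on the E. coli surface, counted by deep sequencing, each peptide's frequency after selection divided by its frequency in the unselected input library; frequency after pTyr selection over input frequency; kinase dosed for 20-30% of maximal phosphorylation in three min.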

Sequence of Fyn (P06241 whole entry, looked up): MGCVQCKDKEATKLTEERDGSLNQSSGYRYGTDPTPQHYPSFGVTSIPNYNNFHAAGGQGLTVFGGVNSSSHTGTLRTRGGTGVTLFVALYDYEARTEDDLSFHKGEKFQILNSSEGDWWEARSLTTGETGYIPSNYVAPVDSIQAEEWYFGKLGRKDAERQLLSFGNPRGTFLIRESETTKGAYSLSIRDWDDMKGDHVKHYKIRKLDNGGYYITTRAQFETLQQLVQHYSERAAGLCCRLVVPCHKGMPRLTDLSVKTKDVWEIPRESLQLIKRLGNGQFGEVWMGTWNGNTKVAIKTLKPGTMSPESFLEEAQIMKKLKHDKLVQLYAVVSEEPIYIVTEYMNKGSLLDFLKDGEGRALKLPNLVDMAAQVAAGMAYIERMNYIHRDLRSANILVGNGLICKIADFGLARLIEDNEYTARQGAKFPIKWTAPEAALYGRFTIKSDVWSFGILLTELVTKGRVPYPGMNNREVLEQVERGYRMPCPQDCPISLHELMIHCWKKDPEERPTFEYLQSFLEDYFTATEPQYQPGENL

| SH2 binding enrichment (c-Src SH2) | SH2 binding enrichment (Grb2 SH2) | SH2 binding enrichment (SHP2-C SH2) | Sequence | phosphorylation enrichment (Fyn) | phosphorylation enrichment (EPHB1) | phosphorylation enrichment (FGFR1) | phosphorylation enrichment (Jak2) | phosphorylation enrichment (c-Abl (mouse)) | phosphorylation enrichment (Hck) | phosphorylation enrichment (EPHB2) | phosphorylation enrichment (Fer (mouse)) | phosphorylation enrichment (c-Src) | phosphorylation enrichment (AncSZ) | phosphorylation enrichment (FGFR3) | phosphorylation enrichment (Fes) | phosphorylation enrichment (MERTK) |
| --- | --- | --- | --- | --- | --- | --- | --- | --- | --- | --- | --- | --- | --- | --- | --- | --- |
| 1.88 | 0.812 | 0.845 | STTIHYNYMCN [TP53_Y234_C229S] | 0.517 | 0.603 | 0.629 | 0.792 | 0.71 | 0.543 | 0.677 | 0.592 | 0.458 | 1 | 0.809 | 1.14 | 0.53 |
| 1.19 | 1.65 | 1.89 | LMVFEYMRHGN [NTRK1_Y591_D596N] | 0.664 | 0.797 | 0.55 | 1.54 | 0.912 | 0.597 | 0.692 | 0.466 | 0.539 | 0.998 | 0.707 | 1.44 | 0.457 |
| 0.78 | 1.43 | 0.822 | NKEPRYQEDPP [TJP2_Y479] | 0.693 | 0.525 | 0.625 | 0.832 | 0.48 | 0.546 | 0.607 | 0.59 | 0.461 | 0.852 | 0.823 | 0.999 | 0.508 |
| 0.519 | 0.844 | 0.847 | KHMADYPDYKY [SOX11_Y113] | 0.407 | 0.458 | 0.453 | 0.442 | 0.404 | 0.401 | 0.471 | 0.42 | 0.4 | 0.642 | 0.632 | 0.616 | 0.322 |
| 0.393 | 0.818 | 0.457 | GEVKAYGAGLL [TH_Y419] | 0.363 | 0.309 | 0.453 | 0.498 | 0.451 | 0.404 | 0.459 | 0.319 | 0.342 | 0.497 | 0.371 | 0.503 | 0.342 |
| 0.962 | 1.08 | 0.885 | VHKKGYNKLNQ [ZNF676_Y98_E96K] | 0.403 | 0.48 | 0.494 | 0.569 | 0.645 | 0.43 | 0.374 | 0.439 | 0.488 | 0.408 | 0.516 | 0.66 | 0.384 |
| 0.537 | 1.15 | 0.635 | DMLYQYLKQIE [RPAP3_Y569] | 1.19 | 3.36 | 3.07 | 0.83 | 0.602 | 5.42 | 1.96 | 6.39 | 1.43 | 1.23 | 2.4 | 0.887 | 5.97 |
| 0.585 | 0.803 | 0.777 | VHVEVYDRPSP | 0.855 | 0.791 | 0.438 | 1.01 | 1.33 | 1.95 | 0.668 | 0.802 | 0.597 | 1.39 | 0.761 | 1.02 | 0.531 |
| 0.549 | 0.891 | 0.522 | QWRTKYEMDAI [MYH7_Y1375_T1377M] | 0.773 | 0.479 | 0.58 | 0.519 | 0.5 | 0.561 | 0.4 | 0.365 | 0.344 | 1.12 | 0.843 | 0.964 | 0.384 |
| 11.8 | 0.937 | 0.63 | IVRSLYEDVED [VHL_Y185_L188V] | 0.488 | 0.611 | 0.502 | 1.21 | 0.834 | 0.526 | 0.701 | 1.69 | 0.51 | 1.3 | 0.674 | 1.26 | 0.458 |
| 0.489 | 0.936 | 0.632 | DGTIVCTGLET [USH2A_Y4487_Y4487C] | 0.454 | 0.533 | 0.509 | 1.06 | 0.837 | 0.438 | 0.558 | 0.582 | 0.499 | 0.955 | 0.636 | 1.12 | 0.47 |
| 1.66 | 0.893 | 0.737 | VCHELYNAIRD [PBRM1_Y54_T56A] | 0.672 | 0.543 | 0.464 | 0.79 | 0.693 | 2.62 | 0.574 | 0.567 | 1.33 | 0.939 | 0.702 | 0.933 | 0.43 |
| 0.887 | 0.972 | 0.838 | GEFHVYRHLRW [PRKRIP1_Y82_R87W] | 0.428 | 0.499 | 0.442 | 0.995 | 0.723 | 0.429 | 0.458 | 0.413 | 0.329 | 1 | 0.682 | 1.08 | 0.345 |
| 0.535 | 0.602 | 0.546 | VPLATYMRIFK [RPL21_Y30_YF] | 0.462 | 0.406 | 0.408 | 0.614 | 0.477 | 0.537 | 0.425 | 0.406 | 0.486 | 0.733 | 0.501 | 0.881 | 0.35 |
| 1.06 | 1.17 | 0.855 | EMFNPYYGLFE [NEDD4L_Y679] | 8.62 | 5.74 | 5.41 | 6.66 | 2.2 | 7.91 | 5.92 | 6.32 | 6.95 | 2.04 | 4.84 | 1.64 | 6.86 |

Continued, sequence first:

| Sequence | SH2 binding enrichment (c-Src SH2) | SH2 binding enrichment (Grb2 SH2) | SH2 binding enrichment (SHP2-C SH2) | phosphorylation enrichment (Fyn) | phosphorylation enrichment (EPHB1) | phosphorylation enrichment (FGFR1) | phosphorylation enrichment (Jak2) | phosphorylation enrichment (c-Abl (mouse)) | phosphorylation enrichment (Hck) | phosphorylation enrichment (EPHB2) | phosphorylation enrichment (Fer (mouse)) | phosphorylation enrichment (c-Src) | phosphorylation enrichment (AncSZ) | phosphorylation enrichment (FGFR3) | phosphorylation enrichment (Fes) | phosphorylation enrichment (MERTK) |
| --- | --- | --- | --- | --- | --- | --- | --- | --- | --- | --- | --- | --- | --- | --- | --- | --- |
| NNHGNYIVRLG [ETFDH_Y172] | 0.781 | 0.889 | 0.991 | 0.5 | 0.548 | 0.456 | 0.702 | 0.667 | 0.481 | 0.563 | 0.438 | 0.547 | 0.619 | 0.595 | 0.723 | 0.416 |
| SREALYNETDP [CACNA1A_Y794_M797T] | 0.764 | 0.89 | 0.641 | 0.624 | 0.67 | 0.559 | 1.14 | 0.996 | 0.739 | 0.642 | 0.663 | 0.722 | 1.16 | 0.815 | 1.37 | 0.625 |
| LVKDGYQMAQP [CSF1R_Y873] | 0.634 | 0.874 | 1.01 | 0.357 | 0.39 | 0.45 | 0.512 | 0.691 | 0.499 | 0.392 | 0.462 | 0.396 | 0.609 | 0.527 | 0.723 | 0.32 |
| GLCSFYETSKM [MAGED2_Y449_R446C_YF] | 0.797 | 0.895 | 0.689 | 0.652 | 0.71 | 0.568 | 1.34 | 0.82 | 0.794 | 0.903 | 1.95 | 0.83 | 1.4 | 0.931 | 1.45 | 0.706 |
| FTGDIYSSSNL [LZTR1_Y141_N143S_YF] | 0.476 | 0.793 | 0.567 | 5.8 | 0.782 | 0.494 | 0.588 | 2.35 | 5.66 | 1.03 | 2.31 | 4.35 | 0.748 | 0.588 | 0.652 | 1.7 |
| NVFGNYNNQSS [HNRNPA1_Y318_D314V] | 0.397 | 0.78 | 0.508 | 0.315 | 0.421 | 0.399 | 0.489 | 0.352 | 0.424 | 0.467 | 0.448 | 0.293 | 0.475 | 0.546 | 0.537 | 0.289 |
| WVYNHYRCIIW [BRCA2_Y2624_W2626C] | 0.58 | 0.94 | 1 | 0.515 | 0.806 | 0.562 | 1.4 | 1.18 | 0.538 | 0.645 | 0.569 | 0.481 | 1.28 | 0.891 | 1.63 | 0.659 |
| TEQDPYNNIVR [MMUT_Y364] | 1.28 | 0.857 | 0.649 | 0.545 | 0.5 | 0.466 | 0.881 | 0.582 | 0.555 | 0.499 | 0.45 | 0.581 | 1.01 | 0.601 | 0.978 | 0.451 |
| ELTSKYRGGGG [HBA1_Y141_V136E] | 0.469 | 0.939 | 0.725 | 0.353 | 0.412 | 0.333 | 0.678 | 0.471 | 0.422 | 0.385 | 0.313 | 0.434 | 0.515 | 0.411 | 0.573 | 0.503 |
| SSFDIYHLSRE [KIR3DL2_Y253_YF] | 0.608 | 0.776 | 0.694 | 12.1 | 0.975 | 1.44 | 0.817 | 0.807 | 9.84 | 0.762 | 0.788 | 7.22 | 1.12 | 1.29 | 1.02 | 2.6 |
| NNIDFYKNTTN [FGFR2_Y657_K659N_YF] | 0.434 | 0.804 | 0.611 | 0.472 | 0.484 | 0.442 | 0.574 | 0.57 | 0.553 | 0.389 | 0.448 | 0.369 | 0.746 | 0.609 | 0.792 | 0.352 |
| GFDHSYFFIAT [ESD_Y262_YF] | 0.621 | 0.813 | 0.697 | 0.525 | 0.63 | 7.11 | 5.69 | 1.15 | 0.626 | 0.603 | 0.589 | 0.558 | 1.52 | 5.72 | 1.28 | 0.67 |
| LLLLFCVVRYC [MPZ_Y177_Y177C] | 1.41 | 2.53 | 1.58 | 1.78 | 2.47 | 3.08 | 3.14 | 4.58 | 2.16 | 2.48 | 1.14 | 2.84 | 3.01 | 2.14 | 2.07 | 2.94 |
| ALHHPYGCDVE [ABL2_Y80_R78H] | 0.773 | 1.03 | 0.771 | 0.44 | 0.606 | 0.441 | 0.708 | 0.681 | 0.541 | 0.621 | 0.447 | 0.669 | 0.803 | 0.726 | 0.998 | 0.44 |
| AHEALYLEADL [CENPF_Y1920_E1915A] | 0.399 | 0.577 | 0.386 | 0.692 | 0.781 | 2.2 | 1.05 | 1.09 | 0.736 | 0.802 | 1.12 | 0.855 | 1.82 | 2.09 | 1.29 | 1.03 |
| AGAKTYKMSMA [CPS1_Y309] | 0.586 | 0.688 | 0.819 | 0.402 | 0.328 | 0.309 | 0.527 | 0.383 | 0.374 | 0.264 | 0.406 | 0.399 | 0.389 | 0.426 | 0.405 | 0.364 |
| EVEPRYVVLFD [ERCC4_Y577_YF] | 3.48 | 0.802 | 1.33 | 0.547 | 3.47 | 0.999 | 1.11 | 0.777 | 0.505 | 3.06 | 0.568 | 0.667 | 1.18 | 0.973 | 1.04 | 4.21 |
| ALTDNYMFVVI [HAGH_Y61_L64V_YF] | 0.388 | 0.679 | 0.568 | 0.653 | 11.5 | 8.71 | 1.3 | 0.99 | 0.574 | 8.6 | 5.63 | 0.516 | 1.68 | 6.54 | 1.61 | 1.52 |
